Target: T1, DCLK1 isoform 4 purified protein (human, UniProt O15075 314-740)
T1 construct: Purified protein used in Western blot and ELISA; also called Doublecortin-like kinase 1 isoform 4; DCLK1 purified protein
T1 sequence: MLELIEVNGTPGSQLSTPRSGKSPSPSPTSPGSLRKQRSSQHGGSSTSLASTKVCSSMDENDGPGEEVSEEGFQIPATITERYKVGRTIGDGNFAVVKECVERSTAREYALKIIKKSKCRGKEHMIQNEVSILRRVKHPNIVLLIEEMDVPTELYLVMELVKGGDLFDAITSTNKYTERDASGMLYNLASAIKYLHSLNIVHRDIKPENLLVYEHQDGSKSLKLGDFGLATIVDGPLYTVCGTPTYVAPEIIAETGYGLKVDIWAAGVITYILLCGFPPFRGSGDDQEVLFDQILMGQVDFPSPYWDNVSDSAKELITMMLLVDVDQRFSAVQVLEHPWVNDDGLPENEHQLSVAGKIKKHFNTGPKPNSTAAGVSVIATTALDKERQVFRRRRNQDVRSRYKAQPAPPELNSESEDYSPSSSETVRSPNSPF
Test: Western blot on purified protein

binding result: binds
B1: CBT-15A monoclonal antibody (antibody, V domains shown)
VH: DVKLVESGGGLVKLGGSLKLSCAASGFTFSSYYMSWVRQTPEKRLELVAAINSNGGSTYYPDTVKGRFTISRDNAKNTLYLQMSSLKSEDTALYYCARHGGNYWYFDVWGAGTTVTVSS
VL: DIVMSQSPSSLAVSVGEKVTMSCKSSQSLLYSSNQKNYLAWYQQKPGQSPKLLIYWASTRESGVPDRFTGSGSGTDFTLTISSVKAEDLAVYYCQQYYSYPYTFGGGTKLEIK
notes: Mouse hybridoma antibody raised against KLH-linked immunogen no; also called CBT-15A mAB; CBT-15 mAB (A)
